B1: PR70 (105–575) (domain or fragment, human, UniProt Q9Y5P8 105-575, looked up)
chain: GTRVVQTRKEEPLPPATSQSIPTFYFPRGRPQDSVNVDAVISKIESTFARFPHERATMDDMGLVAKACGCPLYWKGPLFYGAGGERTGSVSVHKFVAMWRKILQNCHDDAAKFVHLLMSPGCNYLVQEDFVPFLQDVVNTHPGLSFLKEASEFHSRYITTVIQRIFYAVNRSWSGRITCAELRRSSFLQNVALLEEEADINQLTEFFSYEHFYVIYCKFWELDTDHDLLIDADDLARHNDHALSTKMIDRIFSGAVTRGRKVQKEGKISYADFVWFLISEEDKKTPTSIEYWFRCMDLDGDGALSMFELEYFYEEQCRRLDSMAIEALPFQDCLCQMLDLVKPRTEGKITLQDLKRCKLANVFFDTFFNIEKYLDHEQKEQISLLRDGDSGGPELSDWEKYAAEEYDILVAEETAGEPWEDGFEAELSPVEQKLSALRSPLAQRPFFEAPSPLGAVDLYEYACGDEDLEPL
notes: PR70 (B''β), regulatory B'' subunit of PP2A, human, product of PPP2R3B; source: E. coli BL21(DE3), purified (IMAC, TEV cleavage, gel filtration); not shown: His tag, N-terminal, cleaved
B2: PR70 (130–504) (domain or fragment, human, UniProt Q9Y5P8 130-504, looked up)
chain: FPRGRPQDSVNVDAVISKIESTFARFPHERATMDDMGLVAKACGCPLYWKGPLFYGAGGERTGSVSVHKFVAMWRKILQNCHDDAAKFVHLLMSPGCNYLVQEDFVPFLQDVVNTHPGLSFLKEASEFHSRYITTVIQRIFYAVNRSWSGRITCAELRRSSFLQNVALLEEEADINQLTEFFSYEHFYVIYCKFWELDTDHDLLIDADDLARHNDHALSTKMIDRIFSGAVTRGRKVQKEGKISYADFVWFLISEEDKKTPTSIEYWFRCMDLDGDGALSMFELEYFYEEQCRRLDSMAIEALPFQDCLCQMLDLVKPRTEGKITLQDLKRCKLANVFFDTFFNIEKYLDHEQKEQISLLRDGDSGGPELSDWEK
notes: PR70 (B''β), regulatory B'' subunit of PP2A, human, product of PPP2R3B; residues 130–504; source: E. coli BL21(DE3), purified (IMAC, TEV cleavage, gel filtration); not shown: His tag, N-terminal, cleaved
B3: PR70 (25–575) (domain or fragment, human, UniProt Q9Y5P8 25-575, looked up)
chain: EASTQRMLQDCLRRIKAPGRDQPTPGDGEQPGAWPTAPLAAPRPSGLEPPGTPGPGPALPLGAASSPRNAPHVRGTRRSAGTRVVQTRKEEPLPPATSQSIPTFYFPRGRPQDSVNVDAVISKIESTFARFPHERATMDDMGLVAKACGCPLYWKGPLFYGAGGERTGSVSVHKFVAMWRKILQNCHDDAAKFVHLLMSPGCNYLVQEDFVPFLQDVVNTHPGLSFLKEASEFHSRYITTVIQRIFYAVNRSWSGRITCAELRRSSFLQNVALLEEEADINQLTEFFSYEHFYVIYCKFWELDTDHDLLIDADDLARHNDHALSTKMIDRIFSGAVTRGRKVQKEGKISYADFVWFLISEEDKKTPTSIEYWFRCMDLDGDGALSMFELEYFYEEQCRRLDSMAIEALPFQDCLCQMLDLVKPRTEGKITLQDLKRCKLANVFFDTFFNIEKYLDHEQKEQISLLRDGDSGGPELSDWEKYAAEEYDILVAEETAGEPWEDGFEAELSPVEQKLSALRSPLAQRPFFEAPSPLGAVDLYEYACGDEDLEPL
notes: PR70 (B''β), regulatory B'' subunit of PP2A, human, product of PPP2R3B; also called B''/PR70; source: E. coli BL21(DE3), purified (IMAC, TEV cleavage, gel filtration); not shown: His tag, N-terminal, cleaved
B4: PR72 (24–529) (domain or fragment, UniProt Q06190-2 24-529, looked up)
chain: GCDFVLPSRFKKRLKSFQQTQIQNKPEKKPGTPLPPPATSPSSPRPLSPVPHVNNVVNAPLSINIPRFYFPEGLPDTCSNHEQTLSRIETAFMDIEEQKADIYEMGKIAKVCGCPLYWKAPMFRAAGGEKTGFVTAQSFIAMWRKLLNNHHDDASKFICLLAKPNCSSLEQEDFIPLLQDVVDTHPGLTFLKDAPEFHSRYITTVIQRIFYTVNRSWSGKITSTEIRKSNFLQTLALLEEEEDINQITDYFSYEHFYVIYCKFWELDTDHDLYISQADLSRYNDQASSSRIIERIFSGAVTRGKTIQKEGRMSYADFVWFLISEEDKRNPTSIEYWFRCMDVDGDGVLSMYELEYFYEEQCERMEAMGIEPLPFHDLLCQMLDLVKPAVDGKITLRDLKRCRMAHIFYDTFFNLEKYLDHEQRDPFAVQKDVENDGPEPSDWDRFAAEEYETLVAEESAQAQFQEGFEDYETDEPASPSEFGNKSNKILSASLPEKCGKLQSVDEE
notes: PR72 (B''α2), regulatory B'' subunit of PP2A, product of PPP2R3A; residues 24–529; the end at 529 fits the PR72 isoform of 529 residues, not PR130; also called PR72 subunit (residue 24–529); B''α2; source: E. coli BL21(DE3), purified (IMAC, TEV cleavage, gel filtration); not shown: His tag, N-terminal, cleaved
B5: PR70 (130–555) (domain or fragment, human, UniProt Q9Y5P8 130-555, looked up)
chain: FPRGRPQDSVNVDAVISKIESTFARFPHERATMDDMGLVAKACGCPLYWKGPLFYGAGGERTGSVSVHKFVAMWRKILQNCHDDAAKFVHLLMSPGCNYLVQEDFVPFLQDVVNTHPGLSFLKEASEFHSRYITTVIQRIFYAVNRSWSGRITCAELRRSSFLQNVALLEEEADINQLTEFFSYEHFYVIYCKFWELDTDHDLLIDADDLARHNDHALSTKMIDRIFSGAVTRGRKVQKEGKISYADFVWFLISEEDKKTPTSIEYWFRCMDLDGDGALSMFELEYFYEEQCRRLDSMAIEALPFQDCLCQMLDLVKPRTEGKITLQDLKRCKLANVFFDTFFNIEKYLDHEQKEQISLLRDGDSGGPELSDWEKYAAEEYDILVAEETAGEPWEDGFEAELSPVEQKLSALRSPLAQRPFFEAPS
notes: PR70 (B''β), regulatory B'' subunit of PP2A, human, product of PPP2R3B; residues 130–555; source: E. coli BL21(DE3), purified (IMAC, TEV cleavage, gel filtration); not shown: His tag, N-terminal, cleaved
B6: PR70 core fragment (residues 130–483) (domain or fragment, human, UniProt Q9Y5P8 130-483, looked up)
chain: FPRGRPQDSVNVDAVISKIESTFARFPHERATMDDMGLVAKACGCPLYWKGPLFYGAGGERTGSVSVHKFVAMWRKILQNCHDDAAKFVHLLMSPGCNYLVQEDFVPFLQDVVNTHPGLSFLKEASEFHSRYITTVIQRIFYAVNRSWSGRITCAELRRSSFLQNVALLEEEADINQLTEFFSYEHFYVIYCKFWELDTDHDLLIDADDLARHNDHALSTKMIDRIFSGAVTRGRKVQKEGKISYADFVWFLISEEDKKTPTSIEYWFRCMDLDGDGALSMFELEYFYEEQCRRLDSMAIEALPFQDCLCQMLDLVKPRTEGKITLQDLKRCKLANVFFDTFFNIEKYLDHEQK
notes: PR70 (B''β), regulatory B'' subunit of PP2A, human, product of PPP2R3B; The crystal (PDB 4MEW) was of the selenomethionine-labelled protein alone; the model holds residues 134–481; also called PR70 core domain; source: E. coli BL21(DE3), purified (IMAC, TEV cleavage, gel filtration); not shown: His tag, N-terminal, cleaved

What was measured:
Assay in all cases: ITC; B''-constructs at 20–40 µM in the cell titrated with 200–300 µM Aα or Aβ constructs; 15°C; 20 mM Tris pH 7.5, 200 mM NaCl, 2 mM CaCl2; 1:1 binding model
[1] = biological target: B3
[2] = biological target: B1
[3] = biological target: T1, A α (HEAT1–15) (UniProt P30153 1-589); conditions: both partners purified
T1 construct: PP2A scaffolding subunit A, α isoform, product of PPP2R1A; HEAT repeats 1–15; calculated molecular weight 65.3 kD; also called full length A-subunit; scaffolding A subunit; source: E. coli BL21(DE3), purified (IMAC, TEV cleavage, gel filtration); not shown: His tag, N-terminal, cleaved
T1 sequence (P30153 whole entry, canonical isoform): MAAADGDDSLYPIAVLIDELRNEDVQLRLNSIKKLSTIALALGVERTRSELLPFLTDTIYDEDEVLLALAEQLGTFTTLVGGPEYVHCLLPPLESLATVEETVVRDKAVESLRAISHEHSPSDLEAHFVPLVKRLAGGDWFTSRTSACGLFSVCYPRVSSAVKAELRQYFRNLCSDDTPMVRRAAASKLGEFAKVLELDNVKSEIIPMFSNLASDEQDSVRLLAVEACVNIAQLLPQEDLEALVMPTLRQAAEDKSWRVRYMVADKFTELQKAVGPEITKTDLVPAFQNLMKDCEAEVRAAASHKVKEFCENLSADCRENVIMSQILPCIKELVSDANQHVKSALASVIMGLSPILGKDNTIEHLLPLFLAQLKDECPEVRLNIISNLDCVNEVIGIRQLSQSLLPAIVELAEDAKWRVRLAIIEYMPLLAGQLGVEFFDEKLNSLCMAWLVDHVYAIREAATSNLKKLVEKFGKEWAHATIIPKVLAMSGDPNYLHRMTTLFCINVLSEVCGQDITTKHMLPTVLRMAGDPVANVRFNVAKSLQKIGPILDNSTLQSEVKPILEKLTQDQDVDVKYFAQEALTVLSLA

A β (HEAT1–15) (from UniProt P30154 1-601) (natural protein)
Kd [1]: 702 nM
dH [1]: -21.5 kcal/mol
stoichiometry N [1]: 1.01
Kd [2]: 411 nM
dH [2]: -17.1 kcal/mol
stoichiometry N [2]: 0.86

B1
Kd [3]: 45 ± 8 nM

B2
Kd [3]: > 100000 nM

B3
Kd [3]: 112 ± 6 nM

B4
Kd [3]: 2920 ± 300 nM

B5
Kd [3]: > 100000 nM

B6
Kd [3]: > 100000 nM

— article PMC4090178, “Structural and Biochemical Characterization of Human PR70 in Isolation and in Complex with the Scaffolding Subunit of Protein Phosphatase 2A” (PLoS ONE, 2014)
